{
  "source": "paper PMC8989981",
  "about": "“Negative feedback of SNRK to circ-SNRK regulates cardiac function post-myocardial infarction” (Cell Death and Differentiation, 2021)",
  "target": "the molecule itself",
  "assay": "native gel or EMSA; Native-PAGE of total protein from NRCMs, blotted with anti-NOVA1",
  "data": [
    {"protein": "NOVA1 (NOVA alternative splicing regulator 1) (natural protein, rat (endogenous in NRCMs), UniProt Q80WA4 1-474, looked up, NOVA1 (NOVA alternative splicing regulator 1), rat, as present in neonatal rat cardiomyocytes; also called protein NOVA1; source: endogenous, NRCMs (neonatal rat cardiomyocytes), in lysate / total protein) MAAAPIQQNGTHTGVPIDLDPPDSRKRPLEAPPEAGSTKRTNTGEDGQYFLKVLIPSYAAGSIIGKGGQTIVQLQKETGATIKLSKSKDFYPGTTERVCLIQGTIEALNAVHGFIAEKIREMPQNVAKTEPVSILQPQTTVNPDRIKQVKIIVPNSTAGLIIGKGGATVKAIMEQSGAWVQLSQKPDGINLQERVVTVSGEPEQNRKAVELIIQKIQEDPQSGSCLNISYANVTGPVANSNPTGFPYANTAEVLPTAAAAAGLLGHANLAGVAAFPAVLSGFTGNDLVAITSALNTLASYGYNLNTLGLGLSQAAATGALAAAAASANPAAAAANLLATYASEASASGSTAGGTAGTFALGSLAAATAATNGYFGAASPLAASAILGTEKSTDGSKDVVEIAVPENLVGAILGKGGKTLVEYQELTGARIQISKKGEFVPGTRNRKVTITGTPAATQAAQYLITQRITYEQGVR", "values": [
      {"measurement": "stoichiometry N", "value": 2}
    ]}
  ]
}
